Reference: patent US20040005639A1, “Glycerylaldehyde-3-phosphate dehyrogenase promoter inducing cell death” (priority 2000, published 2004)

B1: p104: 1.2 kb rat GAPDH promoter fragment amplified from the EcoRV genome library, SEQ ID NO: 1 (nucleic acid, listed as Rattus norvegicus)
DNA: ACTATAGGGCACGCGTGGTCGATGGCTTGGGTTGGTATCTACGACTAAACAAGAGAGAGAATGAGATTAATCTCCGCATAATAGTGTGTATCGGCTGAACATACACAGACACACACAGACACACACATACACACAGACACAGAAACATACGCTTAGCACACACAGAAGCACACATACACAGACAGAAACTCACATACACAGAGACCCACAGATATAGACACACAGAGACACAGATGCACACACAGACCTACTTACACACTCATAGACATAGATACACACACATAGACACACACTGACATATCAACACACCTACAGACACACACACCACACATACGCACACACACATACATGAACACACACATACACACGCACACACATACACACACATGGAAACACATGTTTTATGAAGATCTAGGAATTACCCCAATCACAGTAGAATGGATGCCTGTGTTGGGACCCAGGAGGGACAGGAAATAGAAATGGGCTAGGGGGCTGGAGAGATGGCTCAGAGGTTAAGAGCACTGTCTGCTCTTCCAGAGGTCCGGAGTTCAATTCCCAGAAACCACATGGTGGCTCACAACCATCTATAATCAGGTCTGGTGCCCTCTTCTGGCCTGCAGGCATACATGCAAGCAGAAAGCTGTATGATGTATACATAATAAATAAATAAATTTGAAAAAAAAGAAATGGGCTTAGGGGTGATGGGAAGAGAAGGACTCTGAAGGTCTGTAGACCGCTCATAAACTGGGGCAGACGTTGCTCCTGCTTGAGCACCTGACTTCCCAGTCCATTGCCACCATGGTCTTTGTGCCACCATGGCCAGTCCAAGGCCATCCTTAAACAGGCTGCAAAAAGTTTTAACTAGGACCATTAGATTGTCTCTTAAAACTATGAAAGGTTTTACTTTATTTCTCTCTCTCTCTCTCTCTCTCTCTCTCTCTCATTTTAAAAATATTTTTTCGGCTCTCTGCTCCTCCCTGTTCTAGAGACAGCCGCATCTTCTTGTGCAGTGCCAGCCTCGTCTCATAGACAAGATGGTGAAGGTCGGTGTGAACGGATTTGGCCGTATCGGACGCCTGGTTACCAGGGCTGCCTTCTCTTGTGACAAAGTGGACACTGTTGCC
modifications: CDS (1035)..(1124)

Columns and labels:
CGCs = assay: Probability of survival of CGCs treated with AraC; format: cell-based, rat
Protocol: (§1) CGCs were prepared according to the previous report (J. Neurochem., 66,928-935 (1996)). 16 hours after plating, the following were mixed and added to the non-serum cultures. In addition, it mixed beforehand and added in the culture so that the ratio of A and B might be set to 5:1, it might serve at a final concentration of 2 micro g/mL, C might be set to 1 micro L/micro g DNA and D might be set to 6 micro L/micro g DNA.
(§2) The cells were washed 20 hours after plating and the culture was continued for further 4 hours. […]
The probability of survival of CGCs treated with AraC (500 micro M) was 68% for 14 hours and 44% for 24 hours.

[1] = system: rat cerebellum origin granule cells (CGCs); assay: Reporter assay: luciferase activity of CGCs transfected with promoter-pGL3-enhanser vector, after AraC addition; format: cell-based; conditions: for luciferase activity: vector without promoter set to 1.0
Protocol: The plasmid which inserted promoter sequence (p104-pCR-Script Amp SK (+) and p302-pCR-Script Amp SK (+)) were cleaved at BsmBI site which exists just upstream of translation starting site of GAPDH protein and was created blunt-ends. The fragment was cleaved at the MluI site of 5′-end, sequence including promoter sequence was excised.
The pGL3-enhanser vector (Promega) was opened the MluI-SmaI site, and each promoter sequence excised here was inserted.
Reporter assay was performed with each vector as follows. Reporter assay used the primary culture cell of rat cerebellum origin granule cells (CGCs).
as §1
A) p104-pGL3-enhanser vector or p302-pGL3-enhanser vector both vector contains a firefly luciferase gene on the downstream of the promoter.
B) pRL-SV40 vector (it includes Renilla luciferase gene as an internal standard enzyme on the downstream of SV40 promoter currently activated constantly),
as §2

| Molecule | probability of survival of CGCs (CGCs; AraC 10 micro M, 14 or 24-hours culture) | probability of survival of CGCs (CGCs; AraC 500 micro M, 14 hours) [%] | probability of survival of CGCs (CGCs; AraC 500 micro M, 24 hours) [%] | increase of luciferase activity ([1]; 24 hours after AraC addition, CGCs transformed by p104-pGL3-enhanser vector) [times] | promoter activation ([1]; AraC 10 micro M (Table 2), result in words) | luciferase activity ([1]; Table 1, AraC 500 micro M, culture time after addition 14 hours) | luciferase activity ([1]; Table 1, AraC 500 micro M, culture time after addition 24 hours) | luciferase activity ([1]; Table 2, AraC 10 micro M, culture time after addition 14 hours) | luciferase activity ([1]; Table 2, AraC 10 micro M, culture time after addition 24 hours) |
| --- | --- | --- | --- | --- | --- | --- | --- | --- | --- |
| Nc1ccn([C@@H]2O[C@H](CO)[C@@H](O)[C@@H]2O)c(=O)n1 [AraC, cytosine arabinoside] | more than 90% | 68 | 44 |  |  |  |  |  |  |
| B1 |  |  |  | 1.7 | neither of the two promoters (p104 and p302) showed significant activation | 1.7 | 2.4 | 1.2 | 1.3 |
